Article PMC3273806

How the values were obtained:
[1] = biological target: FLAG-tagged RAD18 expressed in human cells (human) (UniProt Q9NS91); assay: quantitative western blotting against a reference complex
[2] = biological target: human RAD18, wild type, His-tagged or FLAG-tagged (human) (UniProt Q9NS91); assay: quantitative SDS-PAGE
[3] = biological target: ^HisRAD18^ΔN1 (residues 113-495) (human) (UniProt Q9NS91); assay: quantitative SDS-PAGE
[4] = biological target: RAD18^ΔC1 (residues 1-341), His-tagged or FLAG-tagged (human) (UniProt Q9NS91); assay: quantitative SDS-PAGE
Chain of RAD18^ΔC1 (residues 1-341), His-tagged or FLAG-tagged (human) (Q9NS91 1-341, stated change not applied): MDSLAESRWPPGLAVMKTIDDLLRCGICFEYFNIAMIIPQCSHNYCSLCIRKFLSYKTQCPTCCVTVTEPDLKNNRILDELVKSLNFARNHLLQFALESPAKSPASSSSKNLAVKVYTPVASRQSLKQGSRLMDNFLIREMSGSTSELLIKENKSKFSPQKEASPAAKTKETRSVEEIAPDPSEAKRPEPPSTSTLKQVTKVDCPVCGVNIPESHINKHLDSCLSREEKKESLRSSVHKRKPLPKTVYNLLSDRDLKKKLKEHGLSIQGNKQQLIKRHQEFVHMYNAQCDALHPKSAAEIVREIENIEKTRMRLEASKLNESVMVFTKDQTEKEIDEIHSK

[5] = biological target: untagged RAD18 expressed in human cells (human) (UniProt Q9NS91); assay: quantitative western blotting against a reference complex
Chain of untagged RAD18 expressed in human cells (human) (Q9NS91 whole entry): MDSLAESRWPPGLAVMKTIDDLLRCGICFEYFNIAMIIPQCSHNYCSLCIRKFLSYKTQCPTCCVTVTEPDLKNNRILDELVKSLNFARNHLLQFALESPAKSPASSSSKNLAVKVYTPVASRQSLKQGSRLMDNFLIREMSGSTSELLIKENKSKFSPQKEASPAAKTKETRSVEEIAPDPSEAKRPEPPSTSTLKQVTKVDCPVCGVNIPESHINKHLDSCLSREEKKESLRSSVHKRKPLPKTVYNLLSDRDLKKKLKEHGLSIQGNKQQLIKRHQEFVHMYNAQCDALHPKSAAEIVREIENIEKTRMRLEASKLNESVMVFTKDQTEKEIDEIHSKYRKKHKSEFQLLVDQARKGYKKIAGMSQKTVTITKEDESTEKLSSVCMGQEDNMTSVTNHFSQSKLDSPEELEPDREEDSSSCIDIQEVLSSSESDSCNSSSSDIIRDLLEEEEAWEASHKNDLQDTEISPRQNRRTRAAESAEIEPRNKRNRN

Chain of human RAD18, wild type, His-tagged or FLAG-tagged (Q9NS91 whole entry): as above
Chain of ^HisRAD18^ΔN1 (residues 113-495) (human) (Q9NS91 113-495, stated change not applied): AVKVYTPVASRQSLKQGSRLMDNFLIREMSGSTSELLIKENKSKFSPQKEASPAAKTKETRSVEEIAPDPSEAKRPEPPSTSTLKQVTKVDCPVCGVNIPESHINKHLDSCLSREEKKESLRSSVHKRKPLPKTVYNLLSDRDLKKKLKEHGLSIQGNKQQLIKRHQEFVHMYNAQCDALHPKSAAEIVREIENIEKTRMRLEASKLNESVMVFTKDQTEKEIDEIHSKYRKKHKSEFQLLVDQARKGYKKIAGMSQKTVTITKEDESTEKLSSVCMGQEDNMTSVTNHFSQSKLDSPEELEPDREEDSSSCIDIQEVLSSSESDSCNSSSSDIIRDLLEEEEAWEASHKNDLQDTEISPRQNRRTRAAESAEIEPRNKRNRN
Chain of untagged RAD18 expressed in human cells (Q9NS91 whole entry): as the sequence (Q9NS91 whole entry) above
Chain of human RAD18, wild type, His-tagged or FLAG-tagged (human) (Q9NS91 whole entry, the tested form may be a part): as the sequence (Q9NS91 whole entry) above
Chain of FLAG-tagged RAD18 expressed in human cells (Q9NS91 whole entry): as above
Chain of FLAG-tagged RAD18 expressed in human cells (human) (Q9NS91 whole entry): as above
Chain of human RAD6A (P49459 whole entry): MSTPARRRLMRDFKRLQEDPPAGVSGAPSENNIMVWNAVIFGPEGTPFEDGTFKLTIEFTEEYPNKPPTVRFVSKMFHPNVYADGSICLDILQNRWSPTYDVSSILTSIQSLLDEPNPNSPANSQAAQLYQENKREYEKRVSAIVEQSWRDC
Chain of HA-tagged RAD6A expressed in human cells (P49459 whole entry): as above
Chain of untagged RAD6A expressed in human cells (P49459 whole entry): as above
Chain of FLAG-tagged human RAD6A (P49459 whole entry): as above

With “FLAG-tagged RAD18 expressed in human cells (from UniProt Q9NS91 1-495) (enzyme)” the stoichiometry N [1] was 2.

“FLAG-tagged human RAD6A (from UniProt P49459 1-152) (enzyme)” was tested, and the stoichiometry N (RAD6A per RAD18) [2] was 0.5.

“HA-tagged RAD6A expressed in human cells (from UniProt P49459 1-152) (enzyme)” gave a stoichiometry N (RAD6A per RAD18) [1] of 0.5.

With “human RAD6A (from UniProt P49459 1-152) (enzyme)” the stoichiometry N (RAD6A per HisRAD18ΔN1) [3] was 1.

“human RAD18, wild type, His-tagged or FLAG-tagged (from UniProt Q9NS91 1-495) (enzyme)” gave a stoichiometry N (FLAGRAD18 per HisRAD18ΔC1) [4] of 1 and a ratio of HisRAD18 to FLAGRAD18 in the complex (HisRAD18 per FLAGRAD18) [2] of 1.

With “untagged RAD6A expressed in human cells (from UniProt P49459 1-152) (enzyme)” the stoichiometry N (RAD6A per RAD18) [5] was 0.5.

With “untagged RAD18 expressed in human cells (from UniProt Q9NS91 1-495) (enzyme)” the stoichiometry N [5] was 2.
